Biological target: receptor-binding domain (RBD) of SARS-CoV-2 (SARS-CoV-2, UniProt P0DTC2)
Assay: SPR
Conditions: both partners purified

B1: trastuzumab Fab with LCB1 insertion (Fab)
VH: EVQLVESGGGLVQPGGSLRLSCAASGFNIKDTYIHWVRQAPGKGLEWVARIYPTNGYTRYADSVKGRFTISADTSKNTAYLQMNSLRAEDTAVYYCSRWGGDGGSDKEWILQKIYEIMRLLDELGHAEASMRVSDLIYEFMKKGGSGFYAMDYWGQGTLVTVSS
VL: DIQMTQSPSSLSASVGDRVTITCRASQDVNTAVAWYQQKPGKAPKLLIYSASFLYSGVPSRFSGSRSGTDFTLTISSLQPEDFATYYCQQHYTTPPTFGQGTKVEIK
notes: also called trast-LCB1; trastuzumab +LCB1
  Kd: 0.9 nM
